Assay results taken from the nanobody polyreactivity screen of Harvey et al. (2022).

Experiment: yeast display, Sf9 membrane polyspecificity reagent, FACS + sequencing; frameworks hold sequencing errors
Outline: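 A nanobody's polyreactivity label depends on the gate it was sorted from. Yeast display cells were stained with 10% biotinylated, detergent-solubilized Sf9 membrane reagent for 1 hour at 4 °C, enriched on streptavidin microbeads and sorted by FACS. The low and high (top ~1%) gates were set on anti-HA fluorescence for expression and streptavidin fluorescence for reagent binding.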

| Sequence | polyreactivity (PSR sort gate) |
| --- | --- |
| QVQLGESGGGLVQAGGSLRLTCAASGLIFYRNARGWYRQAPGKERELVAAISKNGGNTYYADSVKGRFTISRDYAKNTVYLQMNSLKPEDTAVYYCAARELYGPFGYWGQGTQVTVSS | high polyreactivity |
| QVQLGESGGGLVQAGGSLRLTCAASGSIFSIYAMGWYIQAPGKERELVAAIDSGTSTTYADSVKGRFTISRDNAKYTVYLQMYSLKPEDTAVYYCAAALYSDVASVATYGYYWGQGTQVTVSS | low polyreactivity |
| QVQLGESGGGLVQAGGSVRLSCAASGGTFGWYAMGWYRPAPGKERELVAAITSSGGTTFDADSVKGRFTISRDNAKNTVYLQMNSLKPEDTAVYYCAKRGQRPTRYKLGKYDYWGQGTQVTVSS | high polyreactivity |
| QVQLGESGGGLVQAGVSLRLSCAASGRTFGSYAMGWYRQAPGKESEMVAVISWSGGITYYADSVKGRFTISRDNAKNTVYLQMNSLKPEDTAVYYCAASPRRDENAGRVRLYYWGQGTQVTVSS | high polyreactivity |
| QVQLGESGGGLVQAVGSLRLSCAASGITFGENAMGWSRQADGKERELVAAITSGGSTDYADSVKGRFTISRDNAKNSVYLQMYCLKPEDTAVYYWAAEAVAYYGSSYGYWGQGTQVTVSS | low polyreactivity |
| QVQLGESGGVLVQAGGSLRLICAACGSTFSYYTMGWYRKAPGKEREVVAVIYTSGGNTYYADSVKGRFTISRDNAKNTVYLQMNSLKPEDTAVYYCAARWYGRGRYEYWGQGTQVTVSS | high polyreactivity |
| QVQLGESGGVLVQEGGSLRLSSAASGSILSKYAIGWYRQAPGKERELVAVITSNSGRKYYADYLKGRFTISRDNAKNTVYLQMNSLKPEDTAVYYCAAQRRSSQNYYWGQGTQVTVSS | high polyreactivity |
| QVQLGESVGGLVQAGGSLRLSCAASGFIIGYYAMGWYRPPPGTERELVAAISSTGGSTYYADSVKGRFTISRDNAKNTVYLQMNSLNPEDTAVYYCAKRFASYRYHPGYDYWGQGTQVTVSS | high polyreactivity |
| QVQLHESGGGLVQAGGGLRLSCAASGSISSTGFMGWYRQAPGKEREPVAAIAPGTTTYYADSVKGRFTISRDNAKNTVYLQMNSLRPEDTAVFYCAVFTDNRVSFRYWGQGTQVTVSS | low polyreactivity |
| QVQLHESGGGLVQAGGSLLSCAASGTISYYREMGWYRQAPGKERELVAGIGVGTITYYADSVKGRFTISRDNAKNTVYLHMNSLKPEDTAVYYCAAHFDGNDSHAYWGQGTQVTVSS | low polyreactivity |
| QVQLHESGGGLVQAGGSLRLSCAASGSISAVGAMGWNRQPPGKEREFAASVNWGTNTNYADSVKGRFTFSRDNAKNTLYLQMNSLKPEDTGVYYCAVLPDWETRHDYWGHGTQVTVSS | low polyreactivity |
| QVQLHESGGGLVQAGGSLRLSCAASGTISYAGPMGWYRQAPGKEREFVAGIGVGSNTNYADSVKGRYTIIRDNAKNTVYLQMNSLKPEDTAVYYCAVGGYAPLGRPYWGQGTQVTVCS | low polyreactivity |
| QVQLHESGGGLVQAGGSLRLSCAASGTITDSGLMGWYRQAPGKERELVAGISSGGITNYADSVKGRFTISRDNAKNTVYLQMNSLKPEDTAVYWGQGTQVTVSS | low polyreactivity |
| QVQLHESGGGLVQAGGSQRLSCASSGYIFYFQYMGWYRQAPGKEREFVAAISDGANTNYADSVKGRFTISRDNAKNTEYLQMNSLKPEDTAVYYCNADQYYWYEYDYWGQGTQVTVSS | low polyreactivity |
| QVQLHESGGGLVQVGGSQRLSCAASGNIFYNYAMGWYRHAQGKEREFDATINHGTSINYADSVKGRFTISRDNAKNTVYLQMNSLKPEDTAVYYCAADLSWTDNLFYWGQGTQVTVSS | low polyreactivity |
| QVQLHGSGGGLVQAGCSLRVSCAASGYIFQNVPMGWTRQAPGKERELVAGIDNGTSTNYADSVNGRFTISRDNAKNTVYMQMNSLKPEDTAVYYCAAAGQADDTLGYWGQGTQVTVSS | low polyreactivity |
| QVQLIESGGGLVHAGGSLRLSCAASGSTYQANTMGWYSHAPGKERQLVAAISIRGANTYYADSVKGRFTISRDNAKNTVYIQMNSLKPEDTAVYDCATRVRKYSLRLDYWGQGTQVTVSS | high polyreactivity |
| QVQLIESGGGLVQAGGSLRLSCAASGGTFRAYAMGWYRQAPGKEREFVAAITWSGGRTYYADSVKGRFTISRDNAKNTVYLQMNSLKPEDTEVYYCATDQGHYYHAEHDYWGQGTQVTVSS | low polyreactivity |
| QVQLIESGGGLVQAGGSLRLSCAASGLTFYSYAMGWYRQAPGKEREFVAVINWSGGRTYYADSVKGRFTISRDTAKNTVFLQMNSLKPEDTAVYYCAAVRYFASSRRYDYLGQGTQVTVSS | high polyreactivity |
| QVQLIESGGGLVQAGGSLRLSCAASGNIFAVYAMGWYRQAPGKERELVASITVSGASTYYADSVKGRFTISRDNAKNTVYLQMNSLKPEDTAVYYCAARIGSNQRKRYYWGQGTQVTVSS | high polyreactivity |
| QVQLIESGGGLVQAGGSLRLSCAASGSIFYINTMGWYRQAPGKERELVATIRTSGGSTYADSVKGRFTISRDNAKNTVYLQMNSLKPEDTAVYYCAVRRYRSSSYGYYSWGQGTQVTVSS | high polyreactivity |
| QVQLIESGGGLVQAGGSLRLSCAASGSTGIYAMGWYRQAPGKERELVAAITRRAGSTYYADSVKGRFTISRDNAKNTVYLQMNSLKPEDTAVYYCAAKGLWWYGTYVSYEYWGKGTQVTVSS | low polyreactivity |

| Sequence | polyreactivity (PSR sort gate) |
| --- | --- |
| QVQLKDSGCGLVQAGGSLRLSCAASGTISYRYRMGWYREAPRKELELVAGISFGSITYYADSVKGRFTISRDNAKNTVYLQMNSLKPVDIAVYYCAVYQKSYRFFPYWGQGTQVTVSS | high polyreactivity |
| QVQLKESGGGLVQAGGSLRLSCAASGNIVDADIMGWYRQAPGKERELVASITDGGSTNYADSVKGRFTISRDNAKNTVYLQMNSLKPEDTAVYYCAAIAYPDIPTYFDYDSEYFYWGQGTQVTVSS | low polyreactivity |
| QVQLLESAGGLVQAGGSLRLSCAASGTIGYNGWYRQAPGKERELVAAISTRDGSTYYADSVKGRFTISRDNAMNTGYLQINSLKPEDTAVYYCAARYPSDYDYWGQGTQVTVSS | low polyreactivity |
| QVQLLESCGGLVQAGGSLRLSCAASGIIFARYAMGWYRPAPGKERELVASITTSGGRTYYADSVKGRFTISRDNAKNTVYLQMNSVKPEDTAVYYCAAYYKRDQMYYWGQGTQVTVSS | high polyreactivity |
| QVQLLESGCGLVQAGGSLRLSCMASGSSLGDRMSWYRQAPGKEHELVATIYDGGITYYADSMKGRFTISRENAKNSVYLQMNSLRPEDTAVYYCGDSFEGYRYHVYCGQGTQVTVSS | low polyreactivity |
| QVQLLESGGGIVQAGGSLRLSCVASGFTISVYAMVWYRHAPGKERELVAAISRVGSSNYADSVKGRFTISRDNAKNTVYLHMISLKTEDTSVYYCNAVLRHTWVSRGYGSWGQGTQVSVSS | high polyreactivity |
| QVQLLESGGGLDQSGGSLRLSCAASGRIFTFNAMGWYRQAPGQERELVAAIRFRDGSTYYADSVKGRFTISRDNAKNNGYLQMYSLKPEDTAVYYSAATAYPWPYYYWGQGTQVTVSS | high polyreactivity |
| QVQLLESGGGLFQAGGILRLSCAASGLIFWSNAMGWYRKEPGKERELVAAISRRGGRTYYADSVKGRFTISRDNAKNTVYVQMNSLKPEDSALYYCNADLYFLTFGYDYWGQGTQVTVSS | high polyreactivity |
| QVQLLESGGGLVQAGGRHRLSCAASGRTFPGNAMGWYRKAPGKERELVAAISWSVDRTYYADSVKGRFTISRDNAKNTVYLQMNSLKPEDTSVYYCAAVEWWSSSLRMYYWGQGTQETVSS | low polyreactivity |
| QVQLLESGGGLVQAGGSHRLSCAASGYIFHYNAMGWYIQAPGKERELVAAISYSGGSTYYADSVKGRFTISRDNAKNTVYLQMNSLKPEDTAVYYCAASRRPFPGYYWGQGTQVTVSS | high polyreactivity |
| QVQLLESGGGLVQAGGSIRLSCSASGRTFARYVMGWYRQAPGKERELVASISNSGGSTYYSDSVKGRFTISRDNAQNTVYLQMNSLKPEDTEVYYCARRYYYYTTYRYDYWGQGTQVTVSS | high polyreactivity |
| QVQLLESGGGLVQAGGSLRFTGAASGSTIAGNAMVWYRHEPGKERELVAVITRGGSTNYADSVKGRFTISRDNAKNNVYLQMNSLKPEDTAVYYCARYRFLLDYWRGGYYWGQGTQVTVSS | high polyreactivity |
| QVQLLESGGGLVQAGGSLRISCAASGFTFWYYAMGWYRQAPGKERELVAAITSSGGSTYYADSVKGRFTISRDNAKNTVYLQMNSLKPEDTAVYYCAAGAPYRYYYWGQGTQVTVSS | high polyreactivity |
| QVQLLESGGGLVQAGGSLRISCAASGIFDPNAMGWYIQAPGKERELVAAITSGGSTNYADSVKGRFTISRDNAKNTFYLQMNSLKPEDTAVYYCNEDYDRPDFYFWVQGTQVTVSS | low polyreactivity |
| QVQLLESGGGLVQAGGSLRISCAASGRTFTYNAMGWYRQAPGKERELVAAITASGGSTYYADSVKGRFTISRDNAKNTVYLQMNSLKPEDTAVYYCAARWSSPYVKLGYWGQGTQVTVSS | high polyreactivity |
| QVQLLESGGGLVQAGGSLRLRCAASGFTFRKYTMGWYRQAPGKERELVAAISSGVSTNYADSVKGRFTISRDNAKKTVYLQMNSLKAEDTAVYYCAARGGYYQGRYKYGYWGQGTQVTVSS | high polyreactivity |
| QVQLLESGGGLVQAGGSLRLSCAASGFIFYEYAMGWYRQAPGKERELVAAITSGGSTDYADSVKGRFTISRDNAKNTVYLQMNSLKPEDTAVYYCNADLFTGYYWYNYWGQGTQVTVSS | low polyreactivity |
| QVQLLESGGGLVQAGGSLRLSCAASGGTFPQYAMGWYRKAPGKERELVAVNTRSGRTNYADTVKARFTISRDNAKNTVYVQMNSLKPEDTAVYYCNADEVDDEVSPDLTEMDYWGQGTQVTVSS | low polyreactivity |
| QVQLLESGGGLVQAGGSLRLSCAASGLIMVYYTMGWYRQAPGKERELVASISKSGGRTYYADSVKGRFTISRDNAKNTVYLQMNSLKPEDTAVYYCAAQRVQYSRRDYWGQGTQVTVSS | high polyreactivity |
| QVQLLESGGGLVQAGGSLRLSCAASGLTVYGYVMAWYRHAPGKERELVASISRSGCRTYYADSVKGRFTISRDNEKNTVYLQMNSLKPEDTAVYYCAADDQVGQEDDYWGQGTQVTVSS | low polyreactivity |
| QVQLLESGGGLVQAGGSLRLSCAASGNTLRYNVMGWYRQAPGKERELFAAISGGGSTSYADSVKGRFTISRDNAKNTVYLQMNSLKPEDTAVYYCAKRSFVGGRGRDSDYRGQGTQVTVSS | low polyreactivity |
